Target: T1, C. difficile RecA, activated (RecA*) (Clostridium difficile 630, UniProt Q18BJ4 1-348)
T1 construct: Protein RecA (recombinase A) of Clostridium difficile strain 630; also called RecA* (CD); source: E. coli BL21 (DE3), purified (Ni-NTA, PD10 desalting)
T1 sequence (looked up): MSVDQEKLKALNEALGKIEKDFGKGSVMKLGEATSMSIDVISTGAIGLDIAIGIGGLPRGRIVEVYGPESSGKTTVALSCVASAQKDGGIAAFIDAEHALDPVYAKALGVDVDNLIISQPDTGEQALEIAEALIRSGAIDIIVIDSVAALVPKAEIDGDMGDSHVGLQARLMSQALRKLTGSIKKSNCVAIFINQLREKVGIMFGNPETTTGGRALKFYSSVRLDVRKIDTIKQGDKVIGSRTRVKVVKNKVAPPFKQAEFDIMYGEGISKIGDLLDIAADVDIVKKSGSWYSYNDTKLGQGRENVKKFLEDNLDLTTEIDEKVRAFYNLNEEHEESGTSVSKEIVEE
Assay: SPR; Biacore X, 25°C; RecA* immobilised on the chip (~2000 response units); LexA (2.6 μM) incubated with non-specific 22-bp DNA (recA operator with six nucleotides changed, 1.4-8.1 μM) passed over at 10 μl/min for 60 s; 20 mM NaH2PO4 pH 7.4, 150 mM NaCl, 2 mM MgCl2, 1 mM DTT, 1 mM ATP, 0.005% P20
Details: both partners purified

B1: C. difficile LexA repressor (natural protein, Clostridium difficile 630, UniProt Q187P1 1-211, looked up)
chain: MYLDLTEKQVLILEFIKSQIILKGYPPAVREICTAVGLRSTSTVHSHLNKLEKLGYIRKDPTKPRAIEVLERSKVNDVSGANQEIIELPLVGQITAGEPILAQQNIEEYIPFPASLVKGSNNFVLRVKGESMINAGILDEDYVVVDKKNTALNSQIVVALINGESATVKRFFKEGNLIRLQPENDFMEPIMLNDSEVEIVGIVTGVFRVIK
notes: LexA repressor of Clostridium difficile strain 630; In the SPR with RecA* LexA was pre-incubated with 22-bp DNA; also called LexA (CD); DinR; source: E. coli BL21 (DE3), purified (Ni-NTA, PD10 desalting)
Q: Does B1 bind?
A: Result: binds

Source: PMC4234289, “The LexA regulated genes of the Clostridium difficile” (BMC Microbiology, 2014)
